# Biological target: hemagglutinin (HA) of A/California/4/09 (H1N1) on pseudotyped lentivirus (Influenza virus A/California/04/2009 (H1N1)) (UniProt P26140)
# Assay: cell-based or functional assay
row,Substance,"Neutralization IC50, lentivirus pseudotype neutralization assay [µg/mL]"
1,monoclonal antibody CH65 (anti-receptor binding site of HA),6.25
2,monoclonal antibody 441D6,0.16
3,monoclonal antibody FI6v3 (anti-HA stem region),0.13

# Source: patent publication US20220054419A1
